The target of the test is p62 (UniProt Q13501). Description: co-IP of stathmin-GFP with Flag-p62. The conditions noted are these: reference: wild type stathmin-GFP; sites S63.

Regarding “stathmin (from UniProt P16949) S63A stathmin-GFP”, the “binding against the reference” value was “weaker”.

These data come from publication PMC8105298.
